The target of experiment [1] is T1, WWP2^HECT (Homo sapiens, UniProt O00308).
T1 construct: GST-TEV (N, cleaved yes); made in house; host or cells: Escherichia coli BL21 (DE3)
Kind of experiment: Naive Library Presenter Screening (phage, NGS), WWP2^HECT. The class given is binding. Particulars: for interaction data at Target Concentration 1000: WWP2 target concentration 1000 nM.

Experiment [2] addresses CDK2 (Homo sapiens, UniProt P24941). The experiment is described as follows: Phage Library Screening with NGS, CDK2. The class given is binding. Further details: Full length CDK2 (residues 1-298) with an N-terminal GST-3C-6×his-TEV tag; GST-3C-6×his-TEV (N, cleaved yes); made in house; host or cells: Sf9 (Bac-to-Bac baculovirus). The following applies: for phage screen counts, Target Concentration 10: CDK2, target concentration 10; for phage screen counts, Target Concentration 30: CDK2, target concentration 30; for phage screen counts, Target Concentration 100: CDK2, target concentration 100; for phage screen counts, Target Concentration 300: CDK2, target concentration 300.

Setting [3] is: CDK2, target concentration 1000, first column.
The mark [4] stands for this setting: CDK2, target concentration 1000, second column.

Numbered stars: 1 amine (or outer) side, 2 acyl side, 3 side chain; on linkers, the order of the positions; unused ones are H or OH. Bridge positions count the residues as written; N and C are the ends. Ends that are not written are not given here. Phenylene(1,4-NHCOCH2)2 = O=C(C[*:1])Nc1ccc(NC(=O)C[*:2])cc1

Experimental findings from patent publication US20240376151A1, “STAPLED PEPTIDES AND METHODS THEREOF” (FOG PHARMACEUTICALS, INC., priority 2022, published 2024) are described below.

T1 sequence (O00308 492-865): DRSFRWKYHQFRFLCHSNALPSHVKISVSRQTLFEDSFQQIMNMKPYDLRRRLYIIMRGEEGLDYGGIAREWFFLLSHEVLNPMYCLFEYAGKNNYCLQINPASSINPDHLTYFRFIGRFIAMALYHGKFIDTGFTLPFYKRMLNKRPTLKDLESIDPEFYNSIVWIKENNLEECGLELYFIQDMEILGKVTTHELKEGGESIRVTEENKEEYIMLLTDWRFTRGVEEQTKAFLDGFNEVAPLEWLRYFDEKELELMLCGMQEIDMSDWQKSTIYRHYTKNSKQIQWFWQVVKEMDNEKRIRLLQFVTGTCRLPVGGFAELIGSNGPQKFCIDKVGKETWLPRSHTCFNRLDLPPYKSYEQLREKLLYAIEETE

For “DPAANYCEAAADTCQFF (linker 7-14 via Phenylene(1,4-NHCOCH2)2 (inferred))”, the “interaction data at Target Concentration 10” value in experiment [1] (WWP2 target concentration 10 nM) was 0. The “interaction data at Target Concentration 30” value in experiment [1] (WWP2 target concentration 30 nM) is recorded as 179. Moreover, the “interaction data at Target Concentration 100” value in experiment [1] (WWP2 target concentration 100 nM) was 254. In experiment [1] (WWP2 target concentration 300 nM), the “interaction data at Target Concentration 300” value is listed as 297. Besides, the entries for the “interaction data at Target Concentration 1000” value in experiment [1] (first column) and in experiment [1] (second column) were 283 and 378, respectively.

On to “DPAWWVCAVAAIECQEY (linker 7-14 via Phenylene(1,4-NHCOCH2)2 (inferred))”, for which, in experiment [2], the “phage screen counts, Target Concentration 10” value was found to be 3; the “phage screen counts, Target Concentration 30” value is on record as 47; the “phage screen counts, Target Concentration 100” value was 258; the “phage screen counts, Target Concentration 300” value amounted to 1258. In experiment [2] (setting [3]), the “phage screen counts, Target Concentration 1000” value was determined as 822. Also, the “phage screen counts, Target Concentration 1000” value in experiment [2] (setting [4]) is given as 819.

On to DPAWWVCSIAAIECESS, for which, in experiment [2], the “phage screen counts, Target Concentration 10” value was determined as 0; the “phage screen counts, Target Concentration 30” value is reported as 0; the “phage screen counts, Target Concentration 100” value was 10; the “phage screen counts, Target Concentration 300” value worked out at 85. For the same sequence, the “phage screen counts, Target Concentration 1000” value in experiment [2] (setting [3]) is listed as 65. The “phage screen counts, Target Concentration 1000” value in experiment [2] (setting [4]) is 77.

As to “DPAWYACIVAAVDCEHS (linker 7-14 via Phenylene(1,4-NHCOCH2)2 (inferred))”, in experiment [2], the “phage screen counts, Target Concentration 10” value stood at 0; the “phage screen counts, Target Concentration 30” value amounted to 0; the “phage screen counts, Target Concentration 100” value is recorded as 8; the “phage screen counts, Target Concentration 300” value is listed as 46. Moreover, in experiment [2] (setting [3]), the “phage screen counts, Target Concentration 1000” value is listed as 206. Also, in experiment [2] (setting [4]), the “phage screen counts, Target Concentration 1000” value amounted to 115.

Take “DPAWYECIVAAIECVEY (linker 7-14 via Phenylene(1,4-NHCOCH2)2 (inferred))”: in experiment [2], the “phage screen counts, Target Concentration 10” value worked out at 0; the “phage screen counts, Target Concentration 30” value is recorded as 0; the “phage screen counts, Target Concentration 100” value is listed as 79; the “phage screen counts, Target Concentration 300” value was determined as 131. The “phage screen counts, Target Concentration 1000” value in experiment [2] (setting [3]) is given as 54. For the same sequence, the “phage screen counts, Target Concentration 1000” value in experiment [2] (setting [4]) amounted to 115.

As to “DPAWYECVVAAIECHAY (linker 7-14 via Phenylene(1,4-NHCOCH2)2 (inferred))”, in experiment [2], the “phage screen counts, Target Concentration 10” value came to 0; the “phage screen counts, Target Concentration 30” value is given as 12; the “phage screen counts, Target Concentration 100” value is given as 0; the “phage screen counts, Target Concentration 300” value is 286. Moreover, the “phage screen counts, Target Concentration 1000” value in experiment [2] (setting [3]) amounted to 411. In experiment [2] (setting [4]), the “phage screen counts, Target Concentration 1000” value is 473.

In the case of “ECLSAFFTCV (linker 2-9 via Phenylene(1,4-NHCOCH2)2 (inferred))”, in experiment [2], the “phage screen counts, Target Concentration 10” value was determined as 0; the “phage screen counts, Target Concentration 30” value turned out to be 0; the “phage screen counts, Target Concentration 100” value was found to be 0; the “phage screen counts, Target Concentration 300” value is 57. For the same sequence, the “phage screen counts, Target Concentration 1000” value in experiment [2] (setting [3]) came out at 452. Besides, the “phage screen counts, Target Concentration 1000” value in experiment [2] (setting [4]) worked out at 284.

As to “FECLDAFFSC (linker 3-10 via Phenylene(1,4-NHCOCH2)2 (inferred); not fully specified (N-terminus, C-terminus))”, in experiment [2], the “phage screen counts, Target Concentration 10” value worked out at 0; the “phage screen counts, Target Concentration 30” value was 0; the “phage screen counts, Target Concentration 100” value is 0; the “phage screen counts, Target Concentration 300” value came out at 49. For the same sequence, the “phage screen counts, Target Concentration 1000” value in experiment [2] (setting [3]) was determined as 982. Also, the “phage screen counts, Target Concentration 1000” value in experiment [2] (setting [4]) came to 405.

As to “MACVDAFFSC (linker 3-10 via Phenylene(1,4-NHCOCH2)2 (inferred))”, in experiment [2], the “phage screen counts, Target Concentration 10” value was 0; the “phage screen counts, Target Concentration 30” value worked out at 0; the “phage screen counts, Target Concentration 100” value is listed as 1; the “phage screen counts, Target Concentration 300” value turned out to be 17. The “phage screen counts, Target Concentration 1000” value in experiment [2] (setting [3]) is 320. Moreover, the “phage screen counts, Target Concentration 1000” value in experiment [2] (setting [4]) came out at 16.

“PACVSAFFACL (linker 3-10 via Phenylene(1,4-NHCOCH2)2 (inferred))”: in experiment [2], the “phage screen counts, Target Concentration 10” value turned out to be 0; the “phage screen counts, Target Concentration 30” value stood at 0; the “phage screen counts, Target Concentration 100” value is listed as 0; the “phage screen counts, Target Concentration 300” value was 0. For the same sequence, the “phage screen counts, Target Concentration 1000” value in experiment [2] (setting [3]) worked out at 151. In experiment [2] (setting [4]), the “phage screen counts, Target Concentration 1000” value came out at 19.

For the sequence “PCLDAFFYCVT (linker 2-9 via Phenylene(1,4-NHCOCH2)2 (inferred))”, in experiment [2], the “phage screen counts, Target Concentration 10” value is 0; the “phage screen counts, Target Concentration 30” value stood at 0; the “phage screen counts, Target Concentration 100” value turned out to be 0; the “phage screen counts, Target Concentration 300” value stood at 7. In experiment [2] (setting [3]), the “phage screen counts, Target Concentration 1000” value was 18. Further, the “phage screen counts, Target Concentration 1000” value in experiment [2] (setting [4]) is 51.

Take “PCLEAFFSCVY (linker 2-9 via Phenylene(1,4-NHCOCH2)2 (inferred))”: in experiment [2], the “phage screen counts, Target Concentration 10” value is 0; the “phage screen counts, Target Concentration 30” value stood at 0; the “phage screen counts, Target Concentration 100” value was determined as 0; the “phage screen counts, Target Concentration 300” value was determined as 61. Besides, the “phage screen counts, Target Concentration 1000” value in experiment [2] (setting [3]) is recorded as 314. Moreover, in experiment [2] (setting [4]), the “phage screen counts, Target Concentration 1000” value is 257.

Consider “PCMDAFFSCVW (linker 2-9 via Phenylene(1,4-NHCOCH2)2 (inferred))”, for which, in experiment [2], the “phage screen counts, Target Concentration 10” value came out at 0; the “phage screen counts, Target Concentration 30” value came to 0; the “phage screen counts, Target Concentration 100” value is reported as 1; the “phage screen counts, Target Concentration 300” value came out at 0. For the same sequence, in experiment [2] (setting [3]), the “phage screen counts, Target Concentration 1000” value was found to be 39. For the same sequence, the “phage screen counts, Target Concentration 1000” value in experiment [2] (setting [4]) was 8.

Turning to “PECLEAFFDCR (linker 3-10 via Phenylene(1,4-NHCOCH2)2 (inferred))”, in experiment [2], the “phage screen counts, Target Concentration 10” value was determined as 0; the “phage screen counts, Target Concentration 30” value is 9; the “phage screen counts, Target Concentration 100” value amounted to 0; the “phage screen counts, Target Concentration 300” value is reported as 84. Besides, in experiment [2] (setting [3]), the “phage screen counts, Target Concentration 1000” value is reported as 344. The “phage screen counts, Target Concentration 1000” value in experiment [2] (setting [4]) worked out at 328.

Take “PECLVAFFSCV (linker 3-10 via Phenylene(1,4-NHCOCH2)2 (inferred))”: in experiment [2], the “phage screen counts, Target Concentration 10” value is reported as 0; the “phage screen counts, Target Concentration 30” value is reported as 1; the “phage screen counts, Target Concentration 100” value is reported as 9; the “phage screen counts, Target Concentration 300” value is recorded as 9. In experiment [2] (setting [3]), the “phage screen counts, Target Concentration 1000” value came out at 422. Besides, in experiment [2] (setting [4]), the “phage screen counts, Target Concentration 1000” value came to 142.

“PFECLSAFFSC (linker 4-11 via Phenylene(1,4-NHCOCH2)2 (inferred))”: in experiment [2], the “phage screen counts, Target Concentration 10” value was 0; the “phage screen counts, Target Concentration 30” value is on record as 0; the “phage screen counts, Target Concentration 100” value stood at 0; the “phage screen counts, Target Concentration 300” value was determined as 1. Besides, in experiment [2] (setting [3]), the “phage screen counts, Target Concentration 1000” value came out at 212. For the same sequence, the “phage screen counts, Target Concentration 1000” value in experiment [2] (setting [4]) was 44.

Regarding “PMACLSAFFTC (linker 4-11 via Phenylene(1,4-NHCOCH2)2 (inferred))”, in experiment [2], the “phage screen counts, Target Concentration 10” value is given as 0; the “phage screen counts, Target Concentration 30” value is listed as 0; the “phage screen counts, Target Concentration 100” value was found to be 0; the “phage screen counts, Target Concentration 300” value came out at 16. Moreover, the “phage screen counts, Target Concentration 1000” value in experiment [2] (setting [3]) is reported as 114. Besides, the “phage screen counts, Target Concentration 1000” value in experiment [2] (setting [4]) came to 176.

With “PSCLSAFFSCY (linker 3-10 via Phenylene(1,4-NHCOCH2)2 (inferred))”, in experiment [2], the “phage screen counts, Target Concentration 10” value was found to be 0; the “phage screen counts, Target Concentration 30” value came to 1; the “phage screen counts, Target Concentration 100” value is 0; the “phage screen counts, Target Concentration 300” value was determined as 14. Further, in experiment [2] (setting [3]), the “phage screen counts, Target Concentration 1000” value is 722. Moreover, in experiment [2] (setting [4]), the “phage screen counts, Target Concentration 1000” value was 485.

Turning to “PTCLNAFFACE (linker 3-10 via Phenylene(1,4-NHCOCH2)2 (inferred))”, in experiment [2], the “phage screen counts, Target Concentration 10” value is listed as 0; the “phage screen counts, Target Concentration 30” value is reported as 0; the “phage screen counts, Target Concentration 100” value is on record as 0; the “phage screen counts, Target Concentration 300” value is 1. Also, the “phage screen counts, Target Concentration 1000” value in experiment [2] (setting [3]) turned out to be 109. The “phage screen counts, Target Concentration 1000” value in experiment [2] (setting [4]) stood at 35.

Turning to “WSCLSAYFSC (linker 3-10 via Phenylene(1,4-NHCOCH2)2 (inferred))”, in experiment [2], the “phage screen counts, Target Concentration 10” value was 0; the “phage screen counts, Target Concentration 30” value came out at 0; the “phage screen counts, Target Concentration 100” value was determined as 0; the “phage screen counts, Target Concentration 300” value was determined as 0. Moreover, the “phage screen counts, Target Concentration 1000” value in experiment [2] (setting [3]) is 19. For the same sequence, the “phage screen counts, Target Concentration 1000” value in experiment [2] (setting [4]) worked out at 189.

For the sequence “YECLEAFFNC (linker 3-10 via Phenylene(1,4-NHCOCH2)2 (inferred))”, in experiment [2], the “phage screen counts, Target Concentration 10” value was found to be 0; the “phage screen counts, Target Concentration 30” value is 0; the “phage screen counts, Target Concentration 100” value came to 0; the “phage screen counts, Target Concentration 300” value is given as 2. In addition, the “phage screen counts, Target Concentration 1000” value in experiment [2] (setting [3]) is 208. Moreover, the “phage screen counts, Target Concentration 1000” value in experiment [2] (setting [4]) is given as 193.
